# Measured values taken from US20240376221A1.
# B1: IgG1-CD134-MEDI0562 (antibody, INN chains, looked up, V domains shown)
# VH: QVQLQESGPGLVKPSQTLSLTCAVYGGSFSSGYWNWIRKHPGKGLEYIGYISYNGITYHNPSLKSRITINRDTSKNQYSLQLNSVTPEDTAVYYCARYKYDYDGGHAMDYWGQGTLVTVSS
# VL: DIQMTQSPSSLSASVGDRVTITCRASQDISNYLNWYQQKPGKAPKLLIYYTSKLHSGVPSRFSGSGSGTDYTLTISSLQPEDFATYYCQQGSALPWTFGQGTKVEIK
# modifications: IgG1
# B2: IgG1-CD134-ABBV368 (antibody, INN chains, looked up, V domains shown)
# VH: EVQLVESGGGLVQPGGSLRLSCAASGFTFSRYGMSWVRQAPGKGLELVATINSNGGRTYYPDSVKGRFTISRDNAKNSLYLQMNSLRAEDTAVYYCAREGITTAYAMDYWGQGTTVTVSS
# VL: DIVMTQSPDSLAVSLGERATINCKASQSVDYDGDSYMHWYQQKPGQPPKLLIYAASILESGVPDRFSGSGSGTDFTLTISSLQAEDVAVYYCQQSNEDPRTFGGGTKVEIK
# modifications: IgG1
# B3: IgG1-CD134-GBR830 (antibody, INN chains, looked up, V domains shown)
# VH: QVTLKESGPALVKPTQTLTLTCSFSGFSLSTSGMGVGWIRQPPGKALEWIAHIWWDDDKYYNTALKTRLTISKDTSKNQVVLTMTNMDPVDTATYYCARIDWDGFAYWGQGTLVTVSS
# VL: EIVLTQSPATLSLSPGERATLSCRASSSVSYMHWYQQKPGQAPRPWIYATSNRATGIPARFSGSGSGTDYTLTISSLEPEDFAVYYCQQWSSNPWTFGQGTKVEIK
# modifications: IgG1
# How the values were obtained:
# [1] = target: recombinant human OX40 (Acro Biosystems, cat. no. OXO-H5224) (human) (UniProt P43489); assay: BLI cross-block; competitor (immobilized 1st Ab): IgG1-CD134-11D4
# Sequence of recombinant human OX40 (Acro Biosystems, cat. no. OXO-H5224) (human) (P43489 29-216 limits assumed): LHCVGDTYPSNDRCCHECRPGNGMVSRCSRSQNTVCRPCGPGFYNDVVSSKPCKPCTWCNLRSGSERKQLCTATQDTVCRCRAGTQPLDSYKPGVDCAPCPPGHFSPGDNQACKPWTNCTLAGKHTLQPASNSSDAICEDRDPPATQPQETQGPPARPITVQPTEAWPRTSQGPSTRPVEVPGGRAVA
# [2] = target: recombinant human OX40 (Acro Biosystems, cat. no. OXO-H5224) (human) (UniProt P43489); assay: BLI, Ab on AHC sensor, OX40 analyte
# [3] = target: recombinant cynomolgus monkey OX40 (Acro Biosystems, cat. no. OXO-C5220) (cynomolgus monkey); assay: BLI, Ab on AHC sensor, OX40 analyte
# Sequence of recombinant cynomolgus monkey OX40 (Acro Biosystems, cat. no. OXO-C5220) (cynomolgus monkey) (P43489 other isoform, or with tags, fused parts or gaps limits assumed): as the sequence (P43489 29-216 limits assumed) above, with H16Q, S29N, S50A, P55A, L70P, A145P, I159T, G173R, G183R, R185P counted along it
# [4] = target: recombinant human OX40 (Acro Biosystems, cat. no. OXO-H5224) (human) (UniProt P43489); assay: BLI cross-block; competitor (immobilized 1st Ab): IgG1-CD134-Hu106
# [5] = target: recombinant human OX40 (Acro Biosystems, cat. no. OXO-H5224) (human) (UniProt P43489); assay: BLI cross-block; competitor (immobilized 1st Ab): IgG1-CD134-RG7888
# [6] = target: recombinant human OX40 (Acro Biosystems, cat. no. OXO-H5224) (human) (UniProt P43489); assay: BLI cross-block; competitor (immobilized 1st Ab): IgG1-CD134-INCAGN1949
# [7] = target: recombinant human OX40 (Acro Biosystems, cat. no. OXO-H5224) (human) (UniProt P43489); assay: BLI cross-block; competitor (immobilized 1st Ab): IgG1-CD134-ABBV368
# [8] = target: recombinant human OX40 (Acro Biosystems, cat. no. OXO-H5224) (human) (UniProt P43489); assay: BLI cross-block; competitor (immobilized 1st Ab): IgG1-CD134-49B4-RRE
# [9] = target: recombinant human OX40 (Acro Biosystems, cat. no. OXO-H5224) (human) (UniProt P43489); assay: BLI cross-block; competitor (immobilized 1st Ab): IgG1-CD134-GBR830
# [10] = target: human OX40 with mouse CRD2 (human with mouse CRD2) (UniProt P43489); assay: flow cytometry, ExpiCHO-S cells with human OX40 carrying mouse CRD2
# Sequence of human OX40 with mouse CRD2 (human with mouse CRD2) (P43489 other isoform, or with tags, fused parts or gaps limits assumed): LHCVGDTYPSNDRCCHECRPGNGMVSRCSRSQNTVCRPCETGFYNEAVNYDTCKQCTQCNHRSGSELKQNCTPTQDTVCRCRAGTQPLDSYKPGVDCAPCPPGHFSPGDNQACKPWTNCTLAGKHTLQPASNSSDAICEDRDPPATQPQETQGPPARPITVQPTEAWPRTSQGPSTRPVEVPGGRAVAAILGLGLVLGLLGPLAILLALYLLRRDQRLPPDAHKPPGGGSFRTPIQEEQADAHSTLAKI
# [11] = target: cynomolgus monkey OX40, cell surface-expressed (cynomolgus monkey); assay: flow cytometry, HEK293F cells with cynomolgus monkey OX40
# Sequence of cynomolgus monkey OX40, cell surface-expressed (cynomolgus monkey) (P43489 other isoform, or with tags, fused parts or gaps limits assumed): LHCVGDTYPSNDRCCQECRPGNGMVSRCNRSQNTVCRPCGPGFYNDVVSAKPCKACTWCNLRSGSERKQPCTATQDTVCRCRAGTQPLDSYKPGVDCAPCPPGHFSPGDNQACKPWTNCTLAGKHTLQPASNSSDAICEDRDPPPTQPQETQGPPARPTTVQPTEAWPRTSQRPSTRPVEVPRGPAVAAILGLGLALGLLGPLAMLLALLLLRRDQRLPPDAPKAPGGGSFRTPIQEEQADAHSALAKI
# [12] = target: human OX40 with mouse CRD4 (human with mouse CRD4) (UniProt P43489); assay: flow cytometry, ExpiCHO-S cells with human OX40 carrying mouse CRD4
# Sequence of human OX40 with mouse CRD4 (human with mouse CRD4) (P43489 other isoform, or with tags, fused parts or gaps limits assumed): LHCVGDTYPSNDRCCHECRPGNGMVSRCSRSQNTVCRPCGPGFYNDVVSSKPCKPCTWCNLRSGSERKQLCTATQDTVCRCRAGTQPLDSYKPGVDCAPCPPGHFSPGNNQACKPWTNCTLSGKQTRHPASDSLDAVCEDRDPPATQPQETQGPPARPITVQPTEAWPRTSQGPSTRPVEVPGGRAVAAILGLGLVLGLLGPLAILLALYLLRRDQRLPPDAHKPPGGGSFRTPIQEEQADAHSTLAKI
# [13] = target: recombinant human OX40 (Acro Biosystems, cat. no. OXO-H5224) (human) (UniProt P43489); assay: BLI cross-block; competitor (immobilized 1st Ab): IgG1-CD134-003-HC6LC2-RR
# [14] = target: human OX40, cell surface-expressed (human) (UniProt P43489); assay: flow cytometry, ExpiCHO-S cells with human OX40
# Sequence of human OX40, cell surface-expressed (human) (P43489 29-277): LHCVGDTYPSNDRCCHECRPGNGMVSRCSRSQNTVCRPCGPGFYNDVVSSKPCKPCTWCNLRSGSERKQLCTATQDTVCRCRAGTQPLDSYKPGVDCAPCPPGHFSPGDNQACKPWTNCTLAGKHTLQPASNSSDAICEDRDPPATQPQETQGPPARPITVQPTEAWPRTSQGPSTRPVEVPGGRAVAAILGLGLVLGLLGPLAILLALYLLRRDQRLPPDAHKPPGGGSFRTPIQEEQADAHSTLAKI
# [15] = target: recombinant human OX40 (Acro Biosystems, cat. no. OXO-H5224) (human) (UniProt P43489); assay: BLI cross-block; competitor (immobilized 1st Ab): IgG1-CD134-h3C8
# [16] = target: human OX40 with mouse CRD1 (human with mouse CRD1) (UniProt P43489); assay: flow cytometry, ExpiCHO-S cells with human OX40 carrying mouse CRD1
# Sequence of human OX40 with mouse CRD1 (human with mouse CRD1) (P43489 other isoform, or with tags, fused parts or gaps limits assumed): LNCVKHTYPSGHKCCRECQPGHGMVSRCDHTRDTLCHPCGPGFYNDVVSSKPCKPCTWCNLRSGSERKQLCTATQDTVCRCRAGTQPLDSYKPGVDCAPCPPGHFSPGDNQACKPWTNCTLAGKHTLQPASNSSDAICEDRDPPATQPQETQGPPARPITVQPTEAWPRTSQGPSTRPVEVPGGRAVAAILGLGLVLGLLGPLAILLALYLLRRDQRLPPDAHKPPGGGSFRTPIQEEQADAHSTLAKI
# [17] = target: recombinant human OX40 (Acro Biosystems, cat. no. OXO-H5224) (human) (UniProt P43489); assay: BLI cross-block; competitor (immobilized 1st Ab): IgG1-CD134-003
# [18] = target: recombinant human OX40 (Acro Biosystems, cat. no. OXO-H5224) (human) (UniProt P43489); assay: BLI cross-block; competitor (immobilized 1st Ab): IgG1-CD134-IBI101
# [19] = target: recombinant human OX40 (Acro Biosystems, cat. no. OXO-H5224) (human) (UniProt P43489); assay: BLI cross-block; competitor (immobilized 1st Ab): IgG1-CD134-A4453
# [20] = target: recombinant human OX40 (Acro Biosystems, cat. no. OXO-H5224) (human) (UniProt P43489); assay: BLI cross-block; competitor (immobilized 1st Ab): IgG1-CD134-012
# [21] = target: recombinant human OX40 (Acro Biosystems, cat. no. OXO-H5224) (human) (UniProt P43489); assay: BLI cross-block; competitor (immobilized 1st Ab): IgG1-CD134-SF2
# [22] = target: human OX40, cell surface-expressed (human) (UniProt P43489); assay: flow cytometry, HEK293F cells with human OX40
# [23] = target: recombinant human OX40 (Acro Biosystems, cat. no. OXO-H5224) (human) (UniProt P43489); assay: BLI cross-block; competitor (immobilized 1st Ab): IgG1-CD134-MEDI0562
# [24] = target: recombinant human OX40 (Acro Biosystems, cat. no. OXO-H5224) (human) (UniProt P43489); assay: BLI cross-block; competitor (immobilized 1st Ab): IgG1-CD134-007
# [25] = target: human OX40 with mouse CRD3 (human with mouse CRD3) (UniProt P43489); assay: flow cytometry, ExpiCHO-S cells with human OX40 carrying mouse CRD3
# Sequence of human OX40 with mouse CRD3 (human with mouse CRD3) (P43489 other isoform, or with tags, fused parts or gaps limits assumed): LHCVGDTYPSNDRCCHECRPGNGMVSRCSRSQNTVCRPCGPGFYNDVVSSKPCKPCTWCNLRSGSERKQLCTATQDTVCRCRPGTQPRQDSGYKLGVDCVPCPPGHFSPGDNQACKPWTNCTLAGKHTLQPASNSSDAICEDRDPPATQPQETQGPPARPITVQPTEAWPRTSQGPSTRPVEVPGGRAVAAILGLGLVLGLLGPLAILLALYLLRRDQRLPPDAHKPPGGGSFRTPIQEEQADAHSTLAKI
Binder,corrected association response [1],Kd [2],koff [2],kon [2],corrected association response [4],corrected association response [5],corrected association response [6],corrected association response [7],corrected association response [8],corrected association response [9],EC50 (read off the curve) [12],corrected association response [13],EC50 (read off the curve) [14],corrected association response [15],EC50 (read off the curve) [16],corrected association response [17],corrected association response [18],corrected association response [19],corrected association response [20],corrected association response [21],also measured
B1,0.14 nm,15 nM,0.0022 s⁻¹,150000 M⁻¹ s⁻¹,0.69 nm,0 nm,0 nm,-0.02 nm,0.15 nm,0.32 nm,0.06 µg/mL,1.73 nm,0.07 µg/mL,0.54 nm,0.07 µg/mL,1.39 nm,0.28 nm,0.41 nm,0.82 nm,0.01 nm,Kd [3]: 17 nM; koff [3]: 0.0018 s⁻¹; kon [3]: 110000 M⁻¹ s⁻¹; EC50 (read off the curve) [10]: 0.06 µg/mL; EC50 (read off the curve) [11]: 0.1 µg/mL; EC50 (read off the curve) [22]: 0.06 µg/mL; corrected association response [23]: 0 nm; corrected association response [24]: 1.14 nm
B2,0.13 nm,32 nM,0.017 s⁻¹,510000 M⁻¹ s⁻¹,0 nm,0.02 nm,0.01 nm,-0.04 nm,0 nm,0.01 nm,0.005 µg/mL,1.68 nm,0.005 µg/mL,-0.03 nm,0.005 µg/mL,1.27 nm,0.01 nm,0.29 nm,0.87 nm,0.04 nm,Kd [3]: 82 nM; koff [3]: 0.019 s⁻¹; kon [3]: 230000 M⁻¹ s⁻¹; EC50 (read off the curve) [11]: 0.05 µg/mL; EC50 (read off the curve) [22]: 0.05 µg/mL; corrected association response [23]: -0.01 nm; corrected association response [24]: 0 nm
B3,0.13 nm,67 nM,0.0077 s⁻¹,120000 M⁻¹ s⁻¹,0.02 nm,0.61 nm,0.01 nm,-0.01 nm,0 nm,0.01 nm,0.06 µg/mL,1.08 nm,0.05 µg/mL,-0.02 nm,0.06 µg/mL,0.97 nm,0.02 nm,0.28 nm,0.84 nm,0.19 nm,EC50 (read off the curve) [25]: 0.06 µg/mL; EC50 (read off the curve) [22]: 0.06 µg/mL; corrected association response [23]: 0.33 nm; corrected association response [24]: 0.07 nm
